From article PMC10837151, “Asymmetric nucleosome PARylation at DNA breaks mediates directional nucleosome sliding by ALC1” (Nature Communications, 2024) come the findings set out here.

The target of the test is T1, histone H4 (Xenopus laevis) (Xenopus laevis, UniProt P62799 1-103).
T1 construct: histone H4, Xenopus laevis, recombinant; In the cryo-EM structure H4 stood within the nucleosome m2; source: bought: Histone Source Protein Expression and Purification Facility, Colorado State University (purified recombinant)
Nature of the test: cryo-EM structure; modified nucleosomes at 1 µM, ALC1 at 6 µM, ADP-BeF3 at 1 mM, incubated 60 minutes on ice before vitrification. To be noted: both partners purified.

B1: ALC1 (Amplified in Liver Cancer 1), wild-type construct (16-879) (enzyme)
chain: FLLRLHTEGRAEAARVQEQDLRQWGLTGIHLRSYQLEGVNWLAQRFHCQNGCILGDEMGLGKTCQTIALFIYLAGRLNDEGPFLILCPLSVLSNWKEEMQRFAPGLSCVTYAGDKEERACLQQDLKQESRFHVLLTTYEICLKDASFLKSFPWSVLVVDEAHRLKNQSSLLHKTLSEFSVVFSLLLTGTPIQNSLQELYSLLSFVEPDLFSKEEVGDFIQRYQDIEKESESASELHKLLQPFLLRRVKAEVATELPKKTEVVIYHGMSALQKKYYKAILMKDLDAFENETAKKVKLQNILSQLRKCVDHPYLFDGVEPEPFEVGDHLTEASGKLHLLDKLLAFLYSGGHRVLLFSQMTQMLDILQDYMDYRGYSYERVDGSVRGEERHLAIKNFGQQPIFVFLLSTRAGGVGMNLTAADTVIFVDSDFNPQNDLQAAARAHRIGQNKSVKVIRLIGRDTVEEIVYRKAASKLQLTNMIIEGGHFTLGAQKPAADADLQLSEILKFGLDKLLASEGSTMDEIDLESILGETKDGQWVSDALPAAEGGSRDQEEGKNHMYLFEGKDYSKEPSKEDRKSFEQLVNLQKTLLEKASQEGRSLRNKGSVLIPGLVEGSTKRKRVLSPEELEDRQKKRQEAAAKRRRLIEEKKRQKEEAEHKKKMAWWESNNYQSFCLPSEESEPEDLENGEESSAELDYQDPDATSLKYVSGDVTHPQAGAEDALIVHCVDDSGHWGRGGLFTALEKRSAEPRKIYELAGKMKDLSLGGVLLFPVDDKESRNKGQDLLALIVAQHRDRSNVLSGIKMAALEEGLKKIFLAAKKKKASVHLPRIGHATKGFNWYGTERLIRKHLAARGIPTYIYYFPRSK
notes: human ALC1/CHD1L, residues 16-879; The cryo-EM methods call the protein ALC1^fl, while the only construct described is 16-879; also called CHD1L; ALC1/CHD1L; source: E. coli Rosetta 2 (DE3), purified (HisTrap, Q/SP ion exchange, Superdex 200)
As for B1, the binding result was “binds”.
